{"source": "the DeepSol protein solubility set"}
{"assay": "soluble on expression in E. coli; label from the status in PepcDB or PDB records"}
{"sequence": "MDTIWELDFYSRPLVDENNKKIWELLVCDRQQQFQFSKTCAGAEANARWLAAALEEAMDQWRQQLGLAEGVQPQRVRFFRRAMSSIITRGGEAAGLVMVPSRRTFALYDWLRDRATNFYPTLPNYQADLATPPQLPPPAPQPLPPALQGDRWQLSGLPLGEIKTAAEWELPFGEVPPLPFLTLNDDTLLPGLIIYSQRALPLAGWLSGLEPASLSFEETPQPLLILETGASDRWILIRGRNPQIQKELAAFKDACTQSQGLHFIAVKEQPTQETLQGFWLLQQTPELLEHHHHHH", "soluble on expression in E. coli": "soluble"}
{"sequence": "MGSDKIHHHHHHLKVVCISDTHEQLHNVTVPDGDVLIHAGDFTNNGKREELIKFNEEMTRFPHKYKLVVAGNHELGFDHDENQGERQDADKGLGTEDGYNILTNVTYLQDKGVTIDGVTFFGSSYHPLRGFPFYRNRAEQLAECWKAVPNDTNVLITHTPPLGYLDQFGDERWGCRDLLKTVERIQPAYHIFGHVHEQHGVLSNGNTVCYKLYENEF", "soluble on expression in E. coli": "not soluble"}
{"sequence": "GPGSMNCDQSPEAPCIVYICKLIDTQYLVGRVVGSVENHDGAFIGFGRVYSGRLRAGQPVYVHSDGVVVEATVGSVYLFRGAGLEETSEVSAGFLCGVGGLTPCITKYATISSVPNMPPFKPLVLQSTSIVRLSVFPKDPRSLQELERGLRLLYKVDPQVEVSMLPTGEHVIGTAGEVHAERCLKDLIDTFAQVEVVASEPLVSFRETIVSNLSAKPKPHTASLMDGAFHVTLQARPLPAEVLELIKDDGKNSGNNPQLLRQAVAALAEHRRFSADVKNGVVSSGPSRLGFLGAVLLANFDGTADPVACWATLQDWKESVVAGFQAACESGPMAQEPLYGVAFVVTNIFVDADSDISGGMVLPSVREACRAAMKLHPRRLVEPVYECTVYSSGFTQGKIYASLSRRRSEIVEEVPNEGSDLFYIRCWLPAVEAFGLQDELRVQTQGASTAQLQMSHWEVIDADPYFVPTTKEEFEEHGAEVATKNIAEQLLERIMRRKGLYRERVVENAEKQKFSLKGA", "soluble on expression in E. coli": "not soluble"}
{"sequence": "NRGVTGGFGITQDITERKKVEEALRISNIYNRSLIEASPDPLVTIGQDGKITDVNNSTETVTGYSRDELIGTDFSDYFTEPERAKKGYQHVFLKGFVKDYPLEIQHKDGRVTQVLYNASVYRDESGEVIGVFAAARD", "soluble on expression in E. coli": "not soluble"}
{"sequence": "MSLKITTEQVCEALDTWVCRPGMTQEQATILITEAFWALKERPNIDVQRVTFNDGEVDQRALGVNRVKIFERWKAIDTRDKRDKFTALIPAIMEAIRISDFRLYCEITDGKSITYMIAGLNKEYGDVVESGLLFADPVVVERETDELIEKAIAFKHAYRQQYQYYFADKQMSARGAYEYRCTTMGEGHHHHHH", "soluble on expression in E. coli": "soluble"}
{"sequence": "KERPEISLPSDFEHTIHVGFDAVTGEFTGMPEQWARLLQTSNITKSEQKKNPQAVLDVLEFYNSKKTSNSQKYMSFTDKS", "soluble on expression in E. coli": "soluble"}
{"sequence": "MSLRQVIPIPSPPAKYLLPEVTVLDYGKKCVVIDLDETLVHSSFKPISNADFIVPVEIDGTIHQVYVLKRPHVDEFLQRMGQLFECVLFTASLAKYADPVADLLDRWGVFRARLFRESCVFHRGNYVKDLSRLGRELSKVIIVDNSPASYIFHPENAVPVQSWFDDMTDTELLDLIPFFEGLSREDDEGHHHHHH", "soluble on expression in E. coli": "soluble"}
{"sequence": "MRGSHHHHHHGSDLGKKLLEAARAGQDDEVRILMANGADVNANDWFGITPLHLVVNNGHLEIIEVLLKYAADVNASDKSGWTPLHLAAYRGHLEIVEVLLKYGADVNAMDYQGYTPLHLAAEDGHLEIVEVLLKYGADVNAQDKFGKTAFDISIDNGNEDLAEILQKLN", "soluble on expression in E. coli": "soluble"}
{"sequence": "MEGTMTCIYESVITGVGSEVQYFIEENMVVIFNDTVPDDLKSIGVIHKHTELQADVAAGDVLEVNGACFRILFVGDKVNDTLREIGHCTIAFNGETNADLPGTLCVEKKPLPDFVTGATIKFIKE", "soluble on expression in E. coli": "not soluble"}
{"sequence": "MFYDLAIGIYDLLVHLAAPFSRKPRKMMKGHWVVYDLLRQQVEKDERYIWFHAASLGEFEQGRPLIESIRERYPDYKILQTFFSPSGYEVRKNYRGADIVCYLPFDKPRNVKKFLDIVNPCMAFFIKYEFWKNYLDELHKRRIPVYSVSSIFRKDQIFFKWYGGTYRNVLKDFDHLFVQNEASKRFLAKIGITRVTVVGDTRFDRVLQIREQAKELPLVEQFKNGAFTFVAGSSWGPDEDLFIEYFNSHPEMKLIIAPHVIDENHLVEIIGKLKRPSVRYTRADEKNVRKADCLIIDCFGLLSSIYRYGEIAYIGGGFGVGIHNTLEAAVYGIPVIFGPKYQKFMEAMQLIEAGGAYSIKDYNELKTLLDRLLTDEAFLRKTGTNAGNYVIGNSGATEKVLHMINFLEHHHHHH", "soluble on expression in E. coli": "not soluble"}
{"sequence": "MSLNKLCMYLERPELYKQSEINFWDDEYISKQLLKAHLDTNFEGASRNFNFIEDSVNWIVTVANPANYPKLLDLGCGPGLYAEKFAQKGYKVTGIDFSKRSINYAQNRNKETNLNINYLFQSYLNMNYNEEFDLATLIYCDYGALSTENRRLLMEKIYDSLKPGGKLILDVFTINKYNNFEEIKYWEINEDGGFWSNEKYMCLQDNCKYNDYNTLEQTLVITEKDENVFYVWNHYFSKESFLLEVENIGFKSVEFFSNVKGEAYSDDSMTMGLVLQKEGHHHHHH", "soluble on expression in E. coli": "soluble"}
{"sequence": "MGSDKIHHHHHHMTNFPPLLLAYGLDLEGPIHRGIATYAKAMIRLLHQSGYPLHLLTGAGGLAQGRLASLSLHRHLDQPSNWSRIQLAQSYFAERLGRSRQTPIKVDSNLIIGDRIQYLQQIDQLINHPFFYRKLRLQAKISDRPFFLKTKNYPVVLTSSPLNLRVSSSSRLIQVIHDLIPLNYLRHPDEAVTFLRRLQATADYSDRIICLSETTRQQFLELFPQAESRTLTLYQPVSFSAEALALTDRPDFAAAVLRRYGLERDRYFFFVGAIEPRKNLETLIAAQQVAVLRTQLPLVIGGTADVHTQDYAQQLQQRSRSTDQILWTGYLTEAEKICLLRHCRALTFLSWQEGFGIPMIEAALCGRSSLLANIPVLREVMGAAATYANPQHPLEVADQLIQLGCYPAQLSELRSRATQQIQAFADGQVQQQIQQVLQSLIS", "soluble on expression in E. coli": "not soluble"}
{"sequence": "MGSDKIHHHHHHMEIKQLKEGLEGKVDFSLEYLREKPRQRAHMVASLLDDFFQPLSQHVLLEERISIMIRRGYVSRNLQDGSLNQHLQNGYERVMSGSLQSYKFRNVLTTATCLSLIGCSGSGKSSTLDRILATYPQVIYHEKHNFFQLSYLKIECPNNGSQQSLCLNFFREVDKRLGTKYESDYGGKRHGVPTLLALMSQVANQRAIGVLVIDEIQRLKIRKAVGREQMLEFFVELVNTVGIPVILVGTPKARPLFEIELQSARRTTGIGSLYWQPMPQYPDNPAERSEWEAFTNKLWRYQWLTRRDEVLTDEIRDCWYELSQGVLDIVVKLFVLAQLRAIASKLERITVKVLRSVYETELKPVHPMLHAIRRGNPNLIAKYSDLRIEDIDKRLLTLHQKIQALPEEPELPFSNNEQAMRLYNLLVQMDCRSDLLIPLVEKIFIERPKLTLRNMMPIVLEWYENGKEQPTNAPKPAKAALVKRTDWNTLESDDLRFIYSQVGKSESIYEALKDNGLVLDLKKVN", "soluble on expression in E. coli": "not soluble"}
{"sequence": "MGHHHHHHSHMNKHQKPVLTGQRFKTRKRDEKEKFEPTVFRDTLVQGLNEAGDDLEAVAKFLDSTGSRLDYRRYADTLFDILVAGSMLAPGGTRIDDGDKTKMTNHCVFSANEDHETIRNYAQVFNKLIRRYKYLEKAFEDEMKKLLLFLKAFSETEQTKLAMLSGILLGNGTLPATILTSLFTDSLVKEGNEAPVFSPVRQQKKNKVTDS", "soluble on expression in E. coli": "not soluble"}
{"sequence": "GPGSMSASSAPDRVYVGKRLHFTNGSRQLVRCGTRNIAVVCNRNELYAIDNACYHHGGPLLLGDIEEMGGHPCIVCPWHSYKIALDTGEGLYLGVELSPAGGTPKQVVRSKGCKQRVHKVEVDEADDVYVLVDLSGPTLESDTYASMELANRERPMSLPVDGGGRGLRVPGIHSHAGVELRSGQVFQHMGSLAEAGGNTGTRGANSLDHAQKTRPHEITSRGSSCSSPTTRLMVSCVAITDVCPQVRQFDFVHHAGPLLRHAELGEYVELELPIKERRTANGGGGQAVDLLSSSSAPAATAGEPMRRRWTICDMNHNSTLFSIIVKAAGTDTQASGSAWLHEHSLSVPLPITRVGGTFTFARHRDTIRRVGGRVLWLTAGVGMTPAYAFLNASLGNSLYVASAEPLHVVHLHSNRTLETVPKLEQFGRWQREFPRSALDTAEKTSGGSGARKPGKTYVMELFIALSTDAGQGQRTSPGSSPPDSCPVATITHRSRLQPANVSAAVQKYFGADMQLAYVCGPQKFVKDCTEALVSTGVPESHILTDDP", "soluble on expression in E. coli": "not soluble"}
{"sequence": "MGSDKIHHHHHHMPRKPIPALPPLDWLRSFEAAARLSNFTAAAAELGLTQAAVSQHIRLLEERLKTRLFSRLARGVALSPEGAAYLPHIQSAFATISSSTTELFEPRAVQTVSIRVPISFALLILVPALPDLAEALPRIQLDLVTIHRPTDYDLPGSALDIRFGNGSFPGREAGRLTAERLVPVASPALAGAADWTALPLLLVAGAREMWAEWFAAAGLAGHPQRSHRFDSFVAAMEAASAGAGVLLGSRPLVDAALRNRTLVPLSDFELSSSSGHFLTSASTARLTSAEQDFRQWLLGHLSRKAPA", "soluble on expression in E. coli": "not soluble"}
{"sequence": "MGSDKIHHHHHHMQNIVDNTLLLSYLNNEYIKKLFQQFNHPFKILRYEAKETVLHEGEMIDGLYIQMSGRTKITSSVITGKALLLRFCSAVSIMGDIELIQSVNIQSHVTSEQQTDFLFIDKNYVTSYLLQDVIFLQELIHHVTYKLQTCTTASRINLLASVETRFASYLCTARNPSNLFGREIHTKDHHEIASLIGTTTRHLNRVIEKLIANNIMHKNNKQIVVDDWKAIDTLSNGLRYE", "soluble on expression in E. coli": "not soluble"}
{"sequence": "MENLASPPDISFVIAAYNAADTIEAAVQSALDQRGVTLEVIVVDDRSADDTITFVEAIAAIDPRVRLLALEENRGPGGARNAGIEAATGRWIAVLDSDDVIRPERSACMMCRAEAANAAVAVDNLDVVYTDGRPMETMFPEEFLEERAVLTLEDFISSNILFRSTFNFGYMKPMFRRDFLNNEGLRFREDIRIGEDYILLASALAAGGLCVIEPKPGYIYNIREGSISRVLELHHVEAMMRADQEFLSHYTLLPAAMDAQQARARSLQLAHNFLTLVENIKRRSVLGALKTTIRDPAVLGHLRMPIAVRLRRLRDAMFAPAAKIQGLEHHHHHH", "soluble on expression in E. coli": "soluble"}
{"sequence": "MGSDKIHHHHHHMRFFIAIYEENNITAAATRCYVSQPSLSAGLKQLEEELGGPLFERSKKGVKALDSAHYLYPLAVKLVEEASKLPALFMAKASRQKLRLAVMPDLSQRRLAGLLTQINQAISHLDLELVDYQSTADCRLTLDSLRHEDEVFFPLWEEDYVLCVPTEHPLAQANRIRPEELSQYDFIECPPCEAHQQTIGLLACSNLSLNLVAKADSKSLVMSLVLAGFGVSFLPDGLIEDEPRLKQIKFDGPRMFRRIGLCYPSHQAVAPTLAKLLRYLTQATA", "soluble on expression in E. coli": "not soluble"}
